We go through 3 molecules from publication PMC7708039, “Tethering-facilitated DNA ‘opening’ and complementary roles of β-hairpin motifs in the Rad4/XPC DNA damage sensor protein”.

Residue numbers refer to the chain shown, from its start.

In data set [1] the target is T1, Rad4-Rad23 delta-beta-hairpin3 (<137>) (UniProt P14736;P32628 101-598+606-632;1-77+230-398, internal_change;internal_change).
T1 sequence 1: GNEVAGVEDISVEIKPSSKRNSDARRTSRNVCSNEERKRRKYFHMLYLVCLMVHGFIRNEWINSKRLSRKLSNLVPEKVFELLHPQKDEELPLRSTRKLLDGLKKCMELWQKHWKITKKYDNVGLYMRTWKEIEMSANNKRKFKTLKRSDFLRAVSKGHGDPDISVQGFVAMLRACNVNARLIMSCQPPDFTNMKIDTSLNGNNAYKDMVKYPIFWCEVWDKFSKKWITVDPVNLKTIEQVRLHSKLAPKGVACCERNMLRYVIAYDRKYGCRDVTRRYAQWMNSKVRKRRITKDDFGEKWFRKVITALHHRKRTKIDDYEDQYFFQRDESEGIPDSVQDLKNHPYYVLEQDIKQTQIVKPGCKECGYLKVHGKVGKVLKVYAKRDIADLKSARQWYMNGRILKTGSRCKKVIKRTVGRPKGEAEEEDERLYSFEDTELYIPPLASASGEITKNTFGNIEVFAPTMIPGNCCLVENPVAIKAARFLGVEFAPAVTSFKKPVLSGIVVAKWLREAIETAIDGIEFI
T1 sequence 2: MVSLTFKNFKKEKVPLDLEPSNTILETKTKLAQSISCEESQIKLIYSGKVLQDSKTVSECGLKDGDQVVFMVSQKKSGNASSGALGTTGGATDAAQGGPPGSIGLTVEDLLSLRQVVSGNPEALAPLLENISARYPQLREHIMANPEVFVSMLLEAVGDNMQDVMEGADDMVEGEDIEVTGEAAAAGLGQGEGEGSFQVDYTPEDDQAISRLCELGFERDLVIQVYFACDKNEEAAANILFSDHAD
The data set is described as follows: competitive EMSA; apparent Ks; 1000 nM cold CH7_NX competitor; EMSA: 5 mM BTP-HCl pH 6.8, 75 mM NaCl, 5 mM DTT, 5% glycerol, 0.74 mM CHAPS, 500 ug/ml BSA, room temperature 20 min, 5 nM labeled DNA, 1000 nM cold CH7_NX. The settings on record: protein: recombinant; tags: N-terminal His tag on Rad4; copies: 1;1; label: 32P; 3-bp CCC/CCC mismatch; 5' overhang 1 nt at both ends. A general note: In EMSA bound probe runs differently from free probe, usually more slowly.

The target in data set [2] is T2, Rad4-Rad23 delta-beta-hairpin2 (<130>) (UniProt P14736;P32628 101-514+528-632;1-77+230-398, internal_change;internal_change).
T2 sequence 1: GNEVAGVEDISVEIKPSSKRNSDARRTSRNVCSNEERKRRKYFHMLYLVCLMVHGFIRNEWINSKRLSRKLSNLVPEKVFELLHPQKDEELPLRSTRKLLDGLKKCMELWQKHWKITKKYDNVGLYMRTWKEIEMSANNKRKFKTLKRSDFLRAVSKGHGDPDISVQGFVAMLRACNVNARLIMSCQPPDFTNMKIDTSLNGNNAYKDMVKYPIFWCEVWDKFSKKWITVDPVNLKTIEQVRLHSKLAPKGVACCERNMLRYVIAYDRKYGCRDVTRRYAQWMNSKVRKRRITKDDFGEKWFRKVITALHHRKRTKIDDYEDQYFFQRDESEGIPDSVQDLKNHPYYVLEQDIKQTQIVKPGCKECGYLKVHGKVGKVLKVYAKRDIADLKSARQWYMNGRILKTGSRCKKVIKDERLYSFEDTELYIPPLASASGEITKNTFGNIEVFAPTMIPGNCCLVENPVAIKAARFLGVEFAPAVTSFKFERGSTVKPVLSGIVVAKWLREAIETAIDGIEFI
T2 sequence 2: T1 sequence 2
Described as above. The settings on record: protein: recombinant; tags: N-terminal His tag on Rad4; copies: 1;1; label: 32P; 3-bp CCC/CCC mismatch; 5' overhang 1 nt at both ends.

Data set [3] has as its target T3, Rad4-Rad23 WT (no thrombin cleavage) (UniProt P14736;P32628 101-632;1-77+230-398, internal_change).
T3 sequence 1: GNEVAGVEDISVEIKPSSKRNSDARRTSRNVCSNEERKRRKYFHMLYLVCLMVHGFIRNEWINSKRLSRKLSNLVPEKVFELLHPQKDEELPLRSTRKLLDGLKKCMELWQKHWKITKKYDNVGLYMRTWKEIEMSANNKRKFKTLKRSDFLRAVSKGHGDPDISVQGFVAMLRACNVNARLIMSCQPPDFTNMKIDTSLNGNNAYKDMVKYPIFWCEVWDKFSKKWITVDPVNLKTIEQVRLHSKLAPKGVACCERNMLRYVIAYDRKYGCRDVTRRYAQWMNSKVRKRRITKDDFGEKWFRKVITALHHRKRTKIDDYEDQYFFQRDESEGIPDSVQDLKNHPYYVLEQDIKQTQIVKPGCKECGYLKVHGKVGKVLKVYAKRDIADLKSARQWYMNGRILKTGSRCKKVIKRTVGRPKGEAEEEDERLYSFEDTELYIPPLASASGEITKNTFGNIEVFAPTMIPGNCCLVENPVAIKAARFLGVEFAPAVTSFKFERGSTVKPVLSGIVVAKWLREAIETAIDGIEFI
T3 sequence 2: T1 sequence 2
The description is as above. The settings on record: protein: recombinant; tags: N-terminal His tag on Rad4; copies: 1;1; label: 32P; 3-bp CCC/CCC mismatch; 5' overhang 1 nt at both ends.

Data set [4] concerns the target T4, Rad4-Rad23 WT crosslinkable (<SC32>) (UniProt P14736;P32628 101-632;1-77+230-398, V131C;C132S;internal_change).
T4 sequence 1: T3 sequence 1 with V31C, C32S
T4 sequence 2: T1 sequence 2
The data set can be described thus: fluorescence lifetime FRET; non-covalent, equimolar; EMSA: 5 mM BTP-HCl pH 6.8, 75 mM NaCl, 5 mM DTT, 5% glycerol, 0.74 mM CHAPS, 500 ug/ml BSA, room temperature 20 min, 5 nM labeled DNA, 1000 nM cold CH7_NX. The settings on record: protein: recombinant; tags: N-terminal His tag on Rad4 (fluorescence); copies: 1;1; label: tCo donor, tCnitro acceptor; 3-bp CCC/CCC mismatch.

Data set [5] deals with T1, Rad4-Rad23 delta-beta-hairpin3 (<137>). The data set is described as follows: competitive EMSA; apparent Kns; 1000 nM cold CH7_NX competitor; EMSA: 5 mM BTP-HCl pH 6.8, 75 mM NaCl, 5 mM DTT, 5% glycerol, 0.74 mM CHAPS, 500 ug/ml BSA, room temperature 20 min, 5 nM labeled DNA, 1000 nM cold CH7_NX. The settings on record: protein: recombinant; tags: N-terminal His tag on Rad4; copies: 1;1; label: 32P; fully matched; 5' overhang 1 nt at both ends.

The target of data set [6] is T2, Rad4-Rad23 delta-beta-hairpin2 (<130>). The description is as above. The settings on record: protein: recombinant; tags: N-terminal His tag on Rad4; copies: 1;1; label: 32P; fully matched; 5' overhang 1 nt at both ends.
The target of data set [7] is T3, Rad4-Rad23 WT (no thrombin cleavage). The description is as above. The following applies: protein: recombinant; tags: N-terminal His tag on Rad4; copies: 1;1; label: 32P; fully matched; 5' overhang 1 nt at both ends.

B1: CCC/CCC mismatched (CH10_NX) (dsDNA)
DNA 1: TTGACTCGACATCCCCCGCTACAA
DNA 2: ATTGTAGCCCCGGATGTCGAGTCA
For the molecule B1, the Kd was about 200 nM in data set [1], about 260 nM in data set [2] and about 60 nM in data set [3].

B2: CCC/CCC_G*_DA (dsDNA)
DNA 1: TTGACTCGACATCCCCCGGTACAA
DNA 2: ATTGTACCCCCGGATGTCGAGTCA
modifications: disulfide-modified guanine G* in top strand
Take B2: the binding result in data set [4] is “binds”.

B3: CCC/GGG matched (dsDNA)
DNA 1: TTGACTCGACATCCCCCGCTACAA
DNA 2: ATTGTAGCGGGGGATGTCGAGTCA
B3: the Kd in data set [5] is about 510 nM; in data set [6] it was about 700 nM; in data set [7] it was about 370 nM.
